Three substances from article PMC7156710 can be followed below.

Data set [1] deals with Sox2 full length (Homo sapiens) (UniProt P48431). As to the kind of experiment: FP. To be noted: 10 mM Tris-HEPES pH 7.5, 8% Ficoll, 0.05% NP-40, 135 mM KCl, 15 mM NaCl, 1 mM DTT, 0.1 mg/mL BSA; 2 nM DNA or 3 nM RNA; low values mean tight binding.
The target of data set [2] is Sox2-HMG (thrombin cleaved) (Homo sapiens) (UniProt P48431). Briefly: FP. To be noted: 10 mM Tris-HEPES pH 7.5, 8% Ficoll, 0.05% NP-40, 135 mM KCl, 15 mM NaCl, 1 mM DTT, 0.1 mg/mL BSA; 2 nM DNA or 3 nM RNA; low values mean tight binding.
Sox2-HMG (thrombin cleaved) (Homo sapiens), sequence (P48431 other isoform, or with tags, fused parts or gaps): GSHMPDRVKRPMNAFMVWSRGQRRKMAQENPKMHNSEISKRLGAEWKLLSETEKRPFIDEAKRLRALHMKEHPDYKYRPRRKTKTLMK
In another data set the target is Sox2-HMG (Homo sapiens) (UniProt P48431). Briefly: fluorescence anisotropy. The conditions noted are these: 10 mM Tris-HEPES pH 7.5, 135 mM KCl, 15 mM NaCl, 1 mM DTT, 8% Ficoll, 0.05% NP-40, 0.1 mg/mL BSA; 2 nM DNA or 3 nM RNA; room temperature (stated for …).
Sox2-HMG (Homo sapiens), sequence (P48431 40-123): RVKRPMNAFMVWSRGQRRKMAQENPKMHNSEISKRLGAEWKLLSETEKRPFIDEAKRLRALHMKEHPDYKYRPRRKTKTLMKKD
Data set [3] addresses Sox2 full length (Homo sapiens) (UniProt P48431). Briefly: fluorescence anisotropy. The conditions noted are these: 10 mM Tris-HEPES pH 7.5, 135 mM KCl, 15 mM NaCl, 1 mM DTT, 8% Ficoll, 0.05% NP-40, 0.1 mg/mL BSA; 2 nM DNA or 3 nM RNA; room temperature (stated for …).

Sox2 full length (Homo sapiens), sequence (P48431 whole entry): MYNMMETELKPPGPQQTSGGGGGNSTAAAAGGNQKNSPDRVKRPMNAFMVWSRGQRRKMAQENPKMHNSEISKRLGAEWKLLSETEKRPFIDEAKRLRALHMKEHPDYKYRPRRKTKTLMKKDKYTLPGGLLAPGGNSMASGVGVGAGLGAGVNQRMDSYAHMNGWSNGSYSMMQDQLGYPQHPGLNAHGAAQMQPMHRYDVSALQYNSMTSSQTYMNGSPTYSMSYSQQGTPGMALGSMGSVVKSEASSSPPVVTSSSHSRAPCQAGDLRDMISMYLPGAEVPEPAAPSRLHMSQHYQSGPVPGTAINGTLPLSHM

As to “GGAAGAAGUGAAAUCACUAUAUUUAGAAACGAAUGCUACCAUCCCACCCCAACUACAUGUUCAGGUUAAAUGCGUGCACAUCCUGGUAGCUGGAACAUCUGUUUCUAGCUUGUUGUUCCUCUUGGCUGCUUUUCAAUUGGAUUUCCUCGAGCAGGUCCCAGGCUUGUCACUGCAGCCAGGGUCUGUUAACCAUCACCACUGGUUCUACAUUAAGUAGGAGGUUCAGGGCUAAGCUAAUAACUCGCCUGCCUUUCUGACUGAUCACAGUGAUGUUCGCCGUGGCCACUUAUCAUGCGGGCUCCUUUGGGAGGGUGCUCUUCUUUGUCUGUACCUCUGGGUGGAAAGGGCGAAUUC [ES2 lncRNA 1-354]”, the Kd was 17.5 nM in data set [1], 25.6 nM in data set [2] and 26 nM in the data set with Sox2-HMG (Homo sapiens).

In the case of ssDNA with consensus site, the binding signal (fold weaker than FGF4) in data set [3] is over 200.

As for dsDNA w/o binding site, the binding signal (fold weaker than FGF4) in data set [3] is over 200.
